# Data reported in PMC3799859.
# B1: ΔIRE1-V5/His (ER lumenal domain of human IRE1) [human] / FLAG-tagged full-length wild-type IRE1 [human] (parent)
# chain 1: IFGSTSTVTLPETLLFVSTLDGSLHAVSKRTGSIKWTLKEDPVLQVPTHVEEPAFLPDPNDGSLYTLGSKNNEGLTKLPFTIPELVQASPCRSSDGILYMGKKQDIWYVIDLLTGEKQQTLSSAFADSLCPSTSLLYLGRTEYTITMYDTKTRELRWNATYFDYAASLPEDDVDYKMSHFVSNGDGLVVTVDSESGDVLWIQNYASPVVAFYVWQREGLRKVMHINVAVETLRYLTFMSGEVGRITKWKYPFPKETEAKSKLTPTLYVGKYSTSLYASPSMVHEGVAVVPRGSTLPLLEGPQTDGVTIGDKGECVITPSTDVKFDPGLKSKNKLNYLRNYWLLIGHHETPLSASTKMLERFPNNLPKHRENVIPADSEKKSFEEVINLVDQTSENAPTTVSRDVEEKPAHAPARPEAPVDSMLKDMATIILSTFLLIGWVAFIITYPLSMHQQQQLQHQQFQKELEKIQLLQQQQQQLPFHPPGDTAQDGELLDTSGPYSESSGTSSPSTSPRASNHSLCSGSSASKAGSSPSLEQDDGDEETSVVIVGKISFCPKDVLGHGAEGTIVYRGMFDNRDVAVKRILPECFSFADREVQLLRESDEHPNVIRYFCTEKDRQFQYIAIELCAATLQEYVEQKDFAHLGLEPITLLQQTTSGLAHLHSLNIVHRDLKPHNILISMPNAHGKIKAMISDFGLCKKLAVGRHSFSRRSGVPGTEGWIAPEMLSEDCKENPTYTVDIFSAGCVFYYVISEGSHPFGKSLQRQANILLGACSLDCLHPEKHEDVIARELIEKMIAMDPQKRPSAKHVLKHPFFWSLEKQLQFFQDVSDRIEKESLDGPIVKQLERGGRAVVKMDWRENITVPLQTDLRKFRTYKGGSVRDLLRAMRNKKHHYRELPAEVRETLGSLPDDFVCYFTSRFPHLLAHTYRAMELCSHERLFQPYYFHEPPEPQPPVTPDAL
# chain 2: IFGSTSTVTLPETLLFVSTLDGSLHAVSKRTGSIKWTLKEDPVLQVPTHVEEPAFLPDPNDGSLYTLGSKNNEGLTKLPFTIPELVQASPCRSSDGILYMGKKQDIWYVIDLLTGEKQQTLSSAFADSLCPSTSLLYLGRTEYTITMYDTKTRELRWNATYFDYAASLPEDDVDYKMSHFVSNGDGLVVTVDSESGDVLWIQNYASPVVAFYVWQREGLRKVMHINVAVETLRYLTFMSGEVGRITKWKYPFPKETEAKSKLTPTLYVGKYSTSLYASPSMVHEGVAVVPRGSTLPLLEGPQTDGVTIGDKGECVITPSTDVKFDPGLKSKNKLNYLRNYWLLIGHHETPLSASTKMLERFPNNLPKHRENVIPADSEKKSFEEVINLVDQTSENAPTTVSRDVEEKPAHAPARPEAPVDSMLKD
# Variants of: B1
# Assay: co-immunoprecipitation (IP: V5, Western blot for FLAG, quantified)
# Details: with FLAG-tagged full-length wild-type IRE1 [human]; with Sig-1R overexpression; non-stressed cells; n = 4; read off a plot
row,screen value [%],Variant
1,58,chain 2 D105P
